To fix the notation:
B4: extracellular domain of cynomolgus CD98hc (domain or fragment)
chain: ELPAQKWWHTGALYRIGDLQAFQGHGSGNLAGLKGRLDYLSSLKVKGLVLGPLHKNQKDDVAQTDLLQIDPNFGSKEDFDNLLQSAKKKSIRVILDLTPNYRGENLWFSTQVDSVATKVKDALEFWLQAGVDGFQVRDIENLKDASSFLAEWENITKGFSEDRLLIAGTNSSDLQQIVSLLESNKDLLLTSSYLSDSSFTGEHTKSLVTQYLNATGNRWCSWSLSQAGLLTSFLPAQLLRLYQLMLFTLPGTPVFSYGDEIGLKAAALPGQPVEAPVMLWDESSFPDIPGAVSANMTVKGQSEDPGSLLSLFRQLSDQRSKERSLLHGDFHTFSSGPGLFSYIRHWDQNERFLVVLNFGDVGLSAGLQASDLPASASLPTKADLVLSTQPGREEGSPLELERLKLEPHEGLLLRFPYVA

Common to all, as to test: SPR
The target of assay [1] is B4.
Assay [2] addresses TV6.d6.
For assay [3], the target named is TV6.d12.
Assay [4] has as its target TV6.38.
The target of assay [5] is ATV^CD98hc.6.29:DNP (human, UniProt P01857 = IgG part).
Assay [6] addresses TV6.d3.
For assay [7], the target named is ATV^CD98hc.6.39 (human, UniProt P01857 = IgG part).

B1: ATV^CD98hc.6.8:DNP (designed binder)
chain: DKTHTCPPCPAPELLGGPSVFLFPPKPKDTLMISRTPEVTCVVVDVSHEDPEVKFNWYVDGVEVHNAKTKPREEQYNSTYRVVSVLTVLHQDWLNGKEYKCKVSNKALPAPIEKTISKAKGQPREPQVYTLPPSRDELTKNQVSLTCLVKGFYPSDIAVLWNSRFVLENNYKTTPPVLDSDGSFFLYSKLTVDKSRWQQGEIFACNVYHEALHNHYTFKNLALSPGK
Molecule B1 had a Kd in assay [1] of 890 nM. In other words, the sub-micromolar range.

B2: TV6.6 as the ATV^CD98hc:DNP clone (designed binder)
chain: DKTHTCPPCPAPELLGGPSVFLFPPKPKDTLMISRTPEVTCVVVDVSHEDPEVKFNWYVDGVEVHNAKTKPREEQYNSTYRVVSVLTVLHQDWLNGKEYKCKVSNKALPAPIEKTISKAKGQPREPQVYTLPPSRDELTKNQVSLTCLVKGFYPSDIAVLWNSRFVLENNYKTTPPVLDSDGSFFLYSKLTVDKSRWQQGNIFACNVYHEALHNHYTFKNLALSPGK
The molecule B2 came in with a Kd in assay [1] of 2100 nM.

B3: extracellular domain of human CD98hc (domain or fragment)
chain: RAPRCRELPAQKWWHTGALYRIGDLQAFQGHGAGNLAGLKGRLDYLSSLKVKGLVLGPIHKNQKDDVAQTDLLQIDPNFGSKEDFDSLLQSAKKKSIRVILDLTPNYRGENSWFSTQVDTVATKVKDALEFWLQAGVDGFQVRDIENLKDASSFLAEWQNITKGFSEDRLLIAGTNSSDLQQILSLLESNKDLLLTSSYLSDSGSTGEHTKSLVTQYLNATGNRWCSWSLSQARLLTSFLPAQLLRLYQLMLFTLPGTPVFSYGDEIGLDAAALPGQPMEAPVMLWDESSFPDIPGAVSANMTVKGQSEDPGSLLSLFRRLSDQRSKERSLLHGDFHAFSAGPGLFSYIRHWDQNERFLVVLNFGDVGLSAGLQASDLPASASLPAKADLLLSTQPGREEGSPLELERLKLEPHEGLLLRFPYAA
On to B3, for which the Kd stood at 550 nM in assay [2]; 2100 nM in assay [3]; 43 nM in assay [4]; 20 nM in assay [5]; 275 nM in assay [6].

As to B4, the Kd in assay [2] turned out to be 5000 nM; in assay [3], 6000 nM; in assay [4] it was 250 nM; in assay [7], 485 nM; in assay [6], 2500 nM.

(Values after PMC10439950 (2023).)
